Some targets named below: cynomolgus monkey ABCC1 (UniProt Q864R9 1-1531); C1.844.hu31; C1.844.hu41; C1.861.hu51; C1.861.hu31; C1.831.hu31.
Common to all, as to test: FACS cell binding
Assay [1] has as its target human ATP Binding Cassette Subfamily C Member 1 (ABCC1) (UniProt P33527 1-1531).

B1: C1.851.hu15 (antibody, V domains shown)
VH: EVQLQESGPGLVKPSETLSLTCTVSGFSLTNNGVSWIRQPPGKGLEWIAAISSGGNIYYNSAFKSRLTISRDTSKNQVSLKLSSVTAADTAVYYCARHRGYYGYNWGYFDYWGQGTLVTVSS
VL: DVVMTQAPSSLSASLGERISLTCRASQDIYGSLNWFQQKPDGTIKLLIYGTSSLDSGVPKRFSGSRSGSDYSLTISSLESEDFADYYCLQYASSPYTFGGGTKLEIK
Consider B1, for which the Kd was 210 nM in the assay with cynomolgus monkey ABCC1 and 119 nM in assay [1].

B2: C1.851.hu12 (antibody, V domains shown)
VH: EVQLQESGPGLVKPSETLSLTCTVSGFSLTNNGVSWIRQPPGKGLEWIAAISSGGNIYYNSAFKSRLTISRDTSKNQVSLKLSSVTAADTAVYYCARHRGYYGYNWGYFDYWGQGTLVTVSS
VL: DIQLTQSPSSLSASVGDRVTITCKGSQNINNYLAWYQQKPGKAPKLLIYKTNSLQTGIPSRFSGSGSGTDYTLTISSLQPEDFATYYCYQYNNGYTFGQGTKLEIK
In the case of B2, the dissociation constant Kd in the assay with cynomolgus monkey ABCC1 stood at 181 nM; in assay [1] it was 153 nM.

B3: C1.851.hu14 (antibody, V domains shown)
VH: EVQLQESGPGLVKPSETLSLTCTVSGFSLTNNGVSWIRQPPGKGLEWIAAISSGGNIYYNSAFKSRLTISRDTSKNQVSLKLSSVTAADTAVYYCARHRGYYGYNWGYFDYWGQGTLVTVSS
VL: DVVMTQTPLSLPVSLGDQASISCRSSQSIVHSNGNTYLEWYLQKPGQSPKLLIYKVSNRFSGVPDRFSGSGTGTDFTLKISRVEAEDLGVYYCFQGSHVPRTFGGGTKLEIK
As to B3, the figures for the Kd (with cynomolgus monkey ABCC1; in assay [1]) were 2030 nM and 148 nM, respectively.

B4: C6.hC1 (other)
chain: MALRGFCSADGSDPLWDWNVTWNTSNPDFTKCFQNTVLVWVPCFYLWACFPFYFLYLSRHDRGYIQMTPLNKTKTALGFLLWIVCWADLFYSFWERSRGIFLAPVFLVSPTLLGITMLLATFLIQLERRKGVQSSGIMLTFWLVALVCALAILRSKIMTALKEDAQVDLFRDITFYVYFSLLLIQLVLSCFSDRSPLFSETIHDPNPCPESSASFLSRITFWWITGLIVRGYRQPLEGSDLWSLNKEDTSEQVVPVLVKNWKKECAKTRKQPVKVVYSSKDPAQPKESSKVDANEEVEALIVKSPQKEWNPSLFKVLYKTFGPYFLMSFFFKAIHDLMMFSGPQILKLLIKFVNDTKAPDWQGYFYTVLLFVTACLQTLVLHQYFHICFVSGMRIKTAVIGAVYRKALVITNSARKSSTVGEIVNLMSVDAQRFMDLATYINMIWSAPLQVILALYLLWLNLGPSVLAGVAVMVLMVPVNAVMAMKTKTYQVAHMKSKDNRIKLMNEILNGIKVLKLYAWELAFKDKVLAIRQEELKVLKKSAYLSAVGTFTWVCTPFLVALCTFAVYVTIDENNILDAQTAFVSLALFNILRFPLNILPMVISSIVQASVSLKRLRIFLSHEELEPDSIERRPVKDGGGTNSITVRNATFTWARSDPPTLNGITFSIPEGALVAVVGQVGCGKSSLLSALLAEMDKVEGHVAIKGSVAYVPQQAWIQNDSLRENILFGCQLEEPYYRSVIQACALLPDLEILPSGDRTEIGEKGVNLSGGQKQRVSLARAVYSNADIYLFDDPLSAVDAHVGKHIFENVIGPKGMLKNKTRILVTHSMSYLPQVDVIIVMSGGKISEMGSYQELLARDGAFAEFLRTYASTEQEQDAEENGVTGVSGPGKEAKQMENGMLVTDSAGKQLQRQLSSSSSYSGDISRHHNSTAELQKAEAKKEETWKLMEADKAQTGQVKLSVYWDYMKAIGLFISFLSIFLFMCNHVSALASNYWLSLWTDDPIVNGTQEHTKVRLSVYGALGISQGIAVFGYSMAVSIGGILASRCLHVDLLHSILRSPMSFFERTPSGNLVNRFSKELDTVDSMIPEVIKMFMGSLFNVIGACIVILLATPIAAIIIPPLGLIYFFVQRFYVASSRQLKRLESVSRSPVYSHFNETLLGVSVIRAFEEQERFIHQSDLKVDENQKAYYPSIVANRWLAVRLECVGNCIVLFAALFAVISRHSLSAGLVGLSVSYSLQVTTYLNWLVRMSSEMETNIVAVERLKEYSETEKEAPWQIQETAPPSSWPQVGRVEFRNYCLRYREDLDFVLRHINVTINGGEKVGIVGRTGAGKSSLTLGLFRINESAEGEIIIDGINIAKIGLHDLRFKITIIPQDPVLFSGSLRMNLDPFSQYSDEEVWTSLELAHLKDFVSALPDKLDHECAEGGENLSVGQRQLVCLARALLRKTKILVLDEATAAVDLETDDLIQSTIRTQFEDCTVLTIAHRLNTIMDYTRVIVLDKGEIQEYGAPSDLLQQRGLFYSMAKDAGLV
With B4, the Kd in the assay with C1.844.hu31 was found to be 518 nM; with C1.844.hu41, 94 nM.

B5: C6.cC1 (other)
chain: MALRGFCSADGSDPLWDWNVTWYTSNPDFTKCFQNTVLVWVPCFYLWACFPFYFLYLSRHDRGYIQMTLLNKTKTALGFLLWIVCWADLFYSFWERSRGIFLAPVFLVSPTLLGITMLLATFLIQLERRKGVQSSGIMLTFWLVALLCALAILRSKIMTALKEDVQVDLFRDMTFYVYFSLVLIQLVLSCFSDRSPLFSETIHDPNPCPESSASFLSRITFWWITGLIVRGYRQPLEGSDLWSLNKEDTSEQVVPVLVKNWKKECAKTRKQPVKVVYSSKDPAQPKDSSKVDANEEVEALIVKSPQKEWNPSLFKVLYKTFGPYFLMSFFFKAIHDLMMFSGPEILKLLINFVNDTKAPDWQGYFYTALLFVAACLQTLVLHQYFHICFVSGMRIKTAVIGAVYRKALVITNAARKSSTVGEIVNLMSVDAQRFMDLATYINMIWSAPLQVILALYLLWRNLGPPILAGVAVMVLMVPVNAVMAMKTKTYQVAHMKSKDNRIKLMNEILNGIKVLKLYAWELAFKDKVLAIRQEELKVLKKSAYLAAVGTFTWVCTPFLVALCTFAVYVTIDKNNVLDAQKAFVSLALFNILRFPLNILPMVISSIVQASVSLKRLRIFLSHEELEPDSIERRPVKDGGDTNSITVRNATFTWARSDPPTLNGITFSIPEGALVAVVGQVGCGKSSLLSALLAEMDKVEGHVALKGSVAYVPQQAWIQNDSLQENILFGCQLEEPYYRSVIQACALLPDLEILPSGDRTEIGEKGVNLSGGQKQRVSLARAVYCNADIYLFDDPLSAVDAHVGKHIFENVIGPKGMLKNKTRILVTHSMSYLPQVDVIIVMSGGKISEMGSYQELLARDGAFAEFLRTYASAEQEQDPEDNGVTGVSGPGKEAKQMENGMLVTDSAGKQLQRQLSSSSSYSGDVSRQHNSTAELQKDGAKKEETWKLMEADKAQTGQVKLSVYWDYMKAIGLFISFLSIFLFICNHVAALASNYWLSLWTDDPIVNGTQEHTKVRLSVYGALGISQGIAVFGYSMAVSIGGILASRCLHVDLLHSILRSPMSFFERTPSGNLVNRFSKELDTVDSMIPEVIKMFMGSLFNVIGACIVILLATPIAAIIIPPLGLIYFFVQRFYVASSRQLKRLESVSRSPVYSHFNETLLGVSVIRAFEEQERFIHQSDLKVDENQKAYYPSIVANRWLAVRLECVGNCIVLFAALFAVISRHSLSAGLVGLSVSYSLQVTTYLNWLVRMSSEMETNIVAVERLKEYSETEKEAPWQIQETAPPSNWPQVGRVEFRNYCLRYREDLDFVLRHINVTINGGEKVGIVGRTGAGKSSLTLGLFRINESAEGEIIIDGINIARIGLHDLRFKITIIPQDPVLFSGSLRMNLDPFSQYSDEEVWTSLELAHLKGFVSALPDKLDHECAEGGENLSVGQRQLVCLARALLRKTKILVLDEATAAVDLETDDLIQSTIRTQFEDCTVLTIAHRLNTIMDYTRVIVLDKGEIQEYGAPSDLLQQRGLFYNMARDAGLV
For B5, the Kd in the assay with C1.844.hu31 stood at 253 nM; with C1.844.hu41 it was 107 nM; in the assay with C1.861.hu51 it was 125 nM; in the assay with C1.861.hu31, 110 nM; in the assay with C1.831.hu31, 1070 nM.

Source of the values: patent US20230272117A1 (published 2023).
